# B1: B6 modified CH2 domain (affinity matured, loop 1 PYLHDD, loop 2 of E10) (designed binder)
# chain: GPSVFLFPPKPKDTLMISRTPEVTCVVVDPYLHDDEVKFNWYVDGAEVHHAQTKPRQYDPLYGYRVVSVLTVLHQDWLNGKEYKCKVSNKALPAPIEKTISKAK
# What was measured:
# [1] = biological target: mouse EphA2 recombinant protein (Fc chimera, R&D Systems, cat#639-A2) (mouse) (UniProt Q03145); assay: end-point titration ELISA on mEphA2
# [2] = biological target: human EphA2 recombinant protein (purified human EphA2 extracellular domain) (human) (UniProt P29317); assay: end-point titration ELISA on huEphA2
# [3] = biological target: human EphA2 receptor expressed on cells (HEK293-EphA2, CHO-EphA2, PC-3) (human) (UniProt P29317); assay: FACS on CHO cells transfected with human EphA2
# [4] = biological target: human EphA2 recombinant protein (purified human EphA2 extracellular domain) (human) (UniProt P29317); assay: SPR, Biacore 3000, immobilized huEphA2 extracellular domain
# [5] = biological target: human EphA2 recombinant protein (purified human EphA2 extracellular domain) (human) (UniProt P29317); assay: SPR, Biacore 3000, immobilized huEphA2 extracellular domain, KDkinetic
# [6] = biological target: human EphA2 recombinant protein (purified human EphA2 extracellular domain) (human) (UniProt P29317); assay: SPR, Biacore 3000, immobilized huEphA2 extracellular domain, KDequilibrium
# [7] = biological target: mouse EphA2 recombinant protein (Fc chimera, R&D Systems, cat#639-A2) (mouse) (UniProt Q03145); assay: BLI, Octet Red, biotinylated mEphA2 on streptavidin sensors, steady state fit (column head prints EC50, title KD)
# [8] = biological target: human EphA2 recombinant protein (purified human EphA2 extracellular domain) (human) (UniProt P29317); assay: BLI, Octet Red, biotinylated huEphA2 on streptavidin sensors, steady state fit (column head prints EC50, title KD)
# Chain of human EphA2 recombinant protein (purified human EphA2 extracellular domain) (human) (P29317 24-537): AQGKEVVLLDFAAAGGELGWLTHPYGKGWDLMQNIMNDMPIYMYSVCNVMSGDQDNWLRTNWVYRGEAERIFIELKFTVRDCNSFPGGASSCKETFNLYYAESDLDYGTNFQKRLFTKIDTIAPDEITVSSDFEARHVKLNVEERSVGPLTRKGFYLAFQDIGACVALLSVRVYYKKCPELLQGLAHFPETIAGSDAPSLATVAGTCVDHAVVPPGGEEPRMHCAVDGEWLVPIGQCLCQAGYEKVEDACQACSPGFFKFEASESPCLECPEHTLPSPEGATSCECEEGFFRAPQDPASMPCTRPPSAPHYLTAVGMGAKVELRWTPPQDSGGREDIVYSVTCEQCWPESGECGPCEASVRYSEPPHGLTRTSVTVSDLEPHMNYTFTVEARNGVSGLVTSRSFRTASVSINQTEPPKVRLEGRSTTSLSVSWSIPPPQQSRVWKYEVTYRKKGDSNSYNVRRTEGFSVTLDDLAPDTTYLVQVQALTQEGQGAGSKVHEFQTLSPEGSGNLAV
# Chain of mouse EphA2 recombinant protein (Fc chimera, R&D Systems, cat#639-A2) (mouse) (Q03145 26-535, change not shown): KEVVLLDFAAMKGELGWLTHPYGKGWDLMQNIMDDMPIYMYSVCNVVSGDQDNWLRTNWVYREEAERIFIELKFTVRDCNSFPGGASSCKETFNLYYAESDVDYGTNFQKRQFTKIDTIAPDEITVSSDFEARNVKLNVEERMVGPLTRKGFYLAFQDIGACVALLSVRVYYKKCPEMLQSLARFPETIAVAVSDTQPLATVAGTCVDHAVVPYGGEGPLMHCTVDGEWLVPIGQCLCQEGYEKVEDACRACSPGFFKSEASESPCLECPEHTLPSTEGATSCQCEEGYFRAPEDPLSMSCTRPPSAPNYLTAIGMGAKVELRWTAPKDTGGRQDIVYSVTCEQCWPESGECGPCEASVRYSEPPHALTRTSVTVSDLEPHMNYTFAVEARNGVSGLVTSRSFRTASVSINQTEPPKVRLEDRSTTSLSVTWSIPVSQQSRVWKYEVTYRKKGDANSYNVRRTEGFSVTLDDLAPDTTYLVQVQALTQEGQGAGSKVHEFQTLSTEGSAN
# Chain of human EphA2 receptor expressed on cells (HEK293-EphA2, CHO-EphA2, PC-3) (human) (P29317 24-976): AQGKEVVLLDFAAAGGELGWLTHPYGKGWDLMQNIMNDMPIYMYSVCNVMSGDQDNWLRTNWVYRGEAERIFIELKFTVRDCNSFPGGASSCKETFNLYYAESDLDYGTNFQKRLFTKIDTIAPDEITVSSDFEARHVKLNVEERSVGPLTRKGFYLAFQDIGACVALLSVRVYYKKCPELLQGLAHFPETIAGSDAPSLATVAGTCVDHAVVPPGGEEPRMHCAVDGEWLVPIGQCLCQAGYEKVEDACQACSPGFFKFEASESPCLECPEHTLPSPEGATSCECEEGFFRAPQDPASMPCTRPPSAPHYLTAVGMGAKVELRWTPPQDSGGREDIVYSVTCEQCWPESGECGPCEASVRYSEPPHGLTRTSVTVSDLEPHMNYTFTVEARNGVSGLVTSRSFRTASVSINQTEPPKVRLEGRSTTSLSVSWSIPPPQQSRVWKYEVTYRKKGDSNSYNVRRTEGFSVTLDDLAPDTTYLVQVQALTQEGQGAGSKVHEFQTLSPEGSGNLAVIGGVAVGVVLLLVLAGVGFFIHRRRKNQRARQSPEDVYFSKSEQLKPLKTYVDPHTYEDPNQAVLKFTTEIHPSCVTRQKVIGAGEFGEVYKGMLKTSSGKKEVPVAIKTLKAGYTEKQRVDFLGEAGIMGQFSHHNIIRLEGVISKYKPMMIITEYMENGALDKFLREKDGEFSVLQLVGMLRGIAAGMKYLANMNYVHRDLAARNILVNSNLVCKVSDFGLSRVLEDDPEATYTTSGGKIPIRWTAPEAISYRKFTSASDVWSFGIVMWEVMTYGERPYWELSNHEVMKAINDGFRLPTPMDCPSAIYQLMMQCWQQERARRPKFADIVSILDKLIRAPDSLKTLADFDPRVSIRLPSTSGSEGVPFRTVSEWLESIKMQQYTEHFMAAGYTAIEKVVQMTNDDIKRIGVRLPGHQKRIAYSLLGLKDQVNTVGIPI
binder,measurement,setting,value
B1,EC50,[1],3.5 nM
same,EC50,[2],6.54 nM
same,EC50,[3],151 nM
same,koff,[4],0.0496 s⁻¹
same,kon,[4],716000 M⁻¹ s⁻¹
same,Kd,[5],69 nM
same,Kd,[6],56 nM
same,Kd,[7],30 nM
same,Kd,[8],39 nM
